First the molecules themselves.
B1: D56R (antibody, V domains shown)
VH: QVQLVQSGAEVKKPGSSVKVSCKASGYTFSSNVISWVRQAPGQGLEWMGGVIPIVRIANYAQRFKGRVTITADESTSTTYMELSSLRSEDTAVYYCASTLGLVLDAMDYWGQGTLVTVSS
VL: ETVLTQSPGTLSLSPGERATLSCRASQSLGSSYLAWYQQKPGQAPRLLIYGASSRAPGIPDRFSGSGSGTDFTLTISRLEPEDFAVYYCQQYADSPITFGQGTRLEIK
notes: GC1008 IgG4 variant
B2: I52L (antibody, V domains shown)
VH: B1 VH with I52L, R56D
VL: B1 VL
notes: GC1008 IgG4 variant
B3: E74W (antibody, V domains shown)
VH: B1 VH with R56D, E74W
VL: B1 VL
notes: GC1008 IgG4 variant
B4: E74R (antibody, V domains shown)
VH: B1 VH with R56D, E74R
VL: B1 VL
notes: GC1008 IgG4 variant
B5: E74L (antibody, V domains shown)
VH: B1 VH with R56D, E74L
VL: B1 VL
notes: GC1008 IgG4 variant
B6: Y27P (antibody, V domains shown)
VH: B1 VH with Y27P, R56D
VL: B1 VL
notes: GC1008 IgG4 variant
B7: Y27I (antibody, V domains shown)
VH: B1 VH with Y27I, R56D
VL: B1 VL
notes: GC1008 IgG4 variant
B8: Y27G (antibody, V domains shown)
VH: B1 VH with Y27G, R56D
VL: B1 VL
notes: GC1008 IgG4 variant
B9: Y27V (antibody, V domains shown)
VH: B1 VH with Y27V, R56D
VL: B1 VL
notes: GC1008 IgG4 variant
B10: Y27Q (antibody, V domains shown)
VH: B1 VH with Y27Q, R56D
VL: B1 VL
notes: GC1008 IgG4 variant
B11: Y27L (antibody, V domains shown)
VH: B1 VH with Y27L, R56D
VL: B1 VL
notes: GC1008 IgG4 variant
B12: Y27S (antibody, V domains shown)
VH: B1 VH with Y27S, R56D
VL: B1 VL
notes: GC1008 IgG4 variant
B13: Y27W (antibody, V domains shown)
VH: B1 VH with Y27W, R56D
VL: B1 VL
notes: GC1008 IgG4 variant
B14: Y27R (antibody, V domains shown)
VH: B1 VH with Y27R, R56D
VL: B1 VL
notes: GC1008 IgG4 variant
B15: Y27N (antibody, V domains shown)
VH: B1 VH with Y27N, R56D
VL: B1 VL
notes: GC1008 IgG4 variant
B16: Y27M (antibody, V domains shown)
VH: B1 VH with Y27M, R56D
VL: B1 VL
notes: GC1008 IgG4 variant
B17: Y27K (antibody, V domains shown)
VH: B1 VH with Y27K, R56D
VL: B1 VL
notes: GC1008 IgG4 variant
B18: Y27T (antibody, V domains shown)
VH: B1 VH with Y27T, R56D
VL: B1 VL
notes: GC1008 IgG4 variant

This note sets out measurements from patent publication US20170342144A1 (Sanofi, published 2017).

Changes are numbered by the printed parent chain.

The target of one assay is T1, human TGFβ1 (human, UniProt P01137 279-390).
T1 construct: also called TGFβ1 homodimer
T1 sequence (P01137 279-390 limits assumed): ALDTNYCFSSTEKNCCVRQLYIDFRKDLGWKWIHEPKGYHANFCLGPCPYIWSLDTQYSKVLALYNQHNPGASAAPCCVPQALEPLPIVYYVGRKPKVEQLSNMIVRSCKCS
The experiment in a line: Biacore, 3.33-90 nM, 1:1 global fit, vs wt GC1008. On the procedure:
(§1) In FIG. 6C, seventeen mutants were selected and scaled up to produce sufficient amount of purified protein for KD (equilibrium constant=kd/ka) analysis by Biacore. Multiple concentrations (90, 30, 10 and 3.33 nM) were used in duplicate on the 150 RU level TGFβ1, 2, and 3 immobilized surfaces. KD was calculated using global curve fitting analysis for a 1-to-1 Langmuir binding model. The experimental data from all four concentrations were used for calculation except for I54N and I54R mutants, where only the top 2 concentrations were used. The fold changes in KD were compared to the fold changes in kd (off rate) presented in FIG. 6B, and a heat map was generated for visualization. Similar fold changes were observed from the two data sets, confirming the validity of using kd as a parameter for screening of 155 single mutants as shown in FIG. 6B.
(In general: SPR reads the build-up and loss of mass on a sensor chip optically.)
As to B1, the “KD mutant/KD wt” value amounted to 1.
For B2, the “KD mutant/KD wt” value turned out to be 4.1.
On the same count and under the same terms, next, B3: 0.9.
Same read-out and setting: next, B4: 2.1.
As to B5, the “KD mutant/KD wt” value is 0.9.

The next assay deals with T2, human TGFβ3 (human, UniProt P10600 301-412).
T2 sequence: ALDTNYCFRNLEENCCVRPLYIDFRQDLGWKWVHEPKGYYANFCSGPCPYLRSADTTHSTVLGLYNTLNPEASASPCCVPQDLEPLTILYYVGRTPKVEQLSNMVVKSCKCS
The experiment in a line: Biacore, 3.33-90 nM, 1:1 global fit, vs wt GC1008. On the procedure: as §1
Turning to B1, the “KD mutant/KD wt” value was 0.6.
Same read-out and setting: next, B2: 2.6; B3: 0.6; B4: 0.8.
For B5, the “KD mutant/KD wt” value worked out at 0.3.

In a further assay the target is T3, human TGFβ2 (human, UniProt P61812 303-414).
T3 construct: also called TGFβ2 homodimer
T3 sequence: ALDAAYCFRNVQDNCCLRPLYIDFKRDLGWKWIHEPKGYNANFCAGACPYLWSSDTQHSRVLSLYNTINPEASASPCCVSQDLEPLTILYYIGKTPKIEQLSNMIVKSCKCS
Briefly: Biacore, 3.33-90 nM, 1:1 global fit, vs wt GC1008. On the procedure:
as §1
On to B1, for which the “KD mutant/KD wt” value was 0.6.
The same measure, in the same setting: with B2 the figure was 2.4; with B3, 0.5; with B4, 1.3.
Take B5: the “KD mutant/KD wt” value came out at 0.7.

A further assay deals with T1, human TGFβ1. The experiment in a line: Biacore off-rate vs wt GC1008, 50 nM. A digest of the protocol:
(§2)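 Surface plasmon resonance on a Biacore 3000 measured how fast purified antibody variants dissociated from TGFβ isoforms immobilized at about 100 RU. Variants carried single heavy- or light-chain substitutions and were produced by transient Expi293F transfection with Protein A cleanup. Samples at 50 nM were tested in duplicate, and each variant kd was divided by the wild-type control kd to give fold change.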
As to B1, the kd var/kd wt is 1.
B6 yielded a kd var/kd wt of 1.7.
Take B2: the kd var/kd wt is 3.
The molecule B7 displayed a kd var/kd wt of 1.3.
As for B8, the kd var/kd wt is 1.5.
Take B3: the kd var/kd wt turned out to be 0.8.
Still for that read-out and setting: with B9 the figure was 1.7; with B10, 1.5.
The molecule B11 displayed a kd var/kd wt of 1.4.
Regarding B4, the kd var/kd wt came out at 2.
B12 gave a kd var/kd wt of 1.6.
Take B13: the kd var/kd wt was 1.4.
Turning to B14, the kd var/kd wt was 2.3.
As to B15, the kd var/kd wt is 1.3.
Molecule B16 gave a kd var/kd wt of 1.3.
For B17, the kd var/kd wt was 1.9.
B18: the kd var/kd wt is 1.4.
For B5, the kd var/kd wt was found to be 0.8.

The target in a further assay is T2, human TGFβ3. Briefly: Biacore off-rate vs wt GC1008, 50 nM. The method, boiled down:
as §2
On to B1, for which the kd var/kd wt is 0.7.
The molecule B6 showed a kd var/kd wt of 1.4.
As for B2, the kd var/kd wt came out at 1.6.
For B7, the kd var/kd wt was 1.1.
B8 yielded a kd var/kd wt of 1.3.
For the molecule B3, the kd var/kd wt was 0.3.
In the case of B9, the kd var/kd wt was 1.5.
On the same count and under the same terms, next, B10: 1.4; B11: 1.1.
For the molecule B4, the kd var/kd wt turned out to be 0.7.
The same measure, in the same setting: next, B12: 1.6; B13: 1.4; B14: 1.7.
On the same count and under the same terms, with B15 the figure was 1.3.
As to B16, the kd var/kd wt was 1.3.
Turning to B17, the kd var/kd wt was determined as 1.3.
Consider B18, for which the kd var/kd wt is 1.5.
In the case of B5, the kd var/kd wt worked out at 0.1.

A further assay has as its target T3, human TGFβ2. The experiment in a line: Biacore off-rate vs wt GC1008, 50 nM. The method, boiled down: as §2
Molecule B1 gave a kd var/kd wt of 0.8.
Regarding B6, the kd var/kd wt turned out to be 1.4.
Same read-out and setting: next, B2: 1.4; B7: 1.3.
B8 showed a kd var/kd wt of 1.4.
In turn, B3 yielded a kd var/kd wt of 0.3.
In turn, B9 yielded a kd var/kd wt of 1.6.
B10 yielded a kd var/kd wt of 1.4.
Consider B11, for which the kd var/kd wt stood at 1.4.
Molecule B4 registered a kd var/kd wt of 1.
B12 gave a kd var/kd wt of 1.5.
The molecule B13 gave a kd var/kd wt of 1.3.
In turn, B14 had a kd var/kd wt of 1.5.
Turning to B15, the kd var/kd wt amounted to 1.3.
As for B16, the kd var/kd wt turned out to be 1.4.
As for B17, the kd var/kd wt was found to be 1.4.
In the case of B18, the kd var/kd wt is 1.4.
The molecule B5 registered a kd var/kd wt of 0.6.

The target of a further assay is T1, human TGFβ1. The experiment in a line: Biacore off-rate vs wt GC1008. The text has this: (§3) Plasmids encoding either the GC1008 heavy chain or light chain were used as a template in PCR-based mutagenesis reactions. Mutations to the encoding DNA were made to create 155 single amino acid substitutions of the encoded heavy chain amino acid sequence and one single amino acid substitution of the encoded light chain amino acid sequence. A QuikChange® Lightning Site-Directed Mutagenesis kit (Agilent Technologies, Santa Clara Calif.) was used according to the manufacturer's instructions to create DNA mutations using a set of forward and reverse primers, either designed for a specific amino acid or for all 20 amino acids with a degenerate codon (NNK). After sequencing confirmation, identified mutant DNA was paired with a wild-type light or heavy chain DNA for transfection into an Expi293F™ host cell suspension (Life Techonologies Corp., Grand Island, N.Y.). At 4 days post-transfection, conditioned media (1 mL) was harvested and purified using a 1 mL Protein A PhyTip® column (PhyNexus, Inc., San Jose, Calif.) and a PureSpeed™ 12-channel pipette (Rainin Instrument LLC, Oakland, Calif.). Purified variant antibody samples were analyzed in duplicate on a Biacore® 3000 (GE Healthcare) at 50 nM concentrations, using the 100 RU level TGFβ1, 2, and 3 immobilized surfaces. The off-rate (kd) of the variants was divided by the kd of the wild-type control to obtain the fold change in the kd. […] A heat map was generated to visualize the results. Variants that completely lost affinity for TGFβ were shown in red without numbers.
Molecule B1 returned a kd mutant/kd wt of 1.
B2 gave a kd mutant/kd wt of 3.
Turning to B3, the kd mutant/kd wt is 0.8.
Consider B4, for which the kd mutant/kd wt came to 2.
Turning to B5, the kd mutant/kd wt came to 0.8.

The target in another assay is T2, human TGFβ3. Briefly: Biacore off-rate vs wt GC1008.
From the text: as §3
Turning to B1, the kd mutant/kd wt is 0.7.
B2: the kd mutant/kd wt was 1.6.
Consider B3, for which the kd mutant/kd wt was found to be 0.3.
B4 registered a kd mutant/kd wt of 0.7.
Same read-out and setting: with B5 the figure was 0.1.

Another assay addresses T3, human TGFβ2. Briefly: Biacore off-rate vs wt GC1008.
From the text: as §3
B1: the kd mutant/kd wt is 0.8.
B2: the kd mutant/kd wt is 1.4.
Same read-out and setting: next, B3: 0.3; B4: 1; B5: 0.6.
